The values below come from patent US20130164214A1.

One assay addresses CD20 (UniProt P11836). The assay is described as follows: cell-based or functional assay.
Assay [1] addresses CD74 (invariant chain, Ii) (human) (UniProt P04233). The assay is described as follows: cell-based or functional assay.

Chain of CD74 (invariant chain, Ii) (human) (P04233 whole entry, change not shown): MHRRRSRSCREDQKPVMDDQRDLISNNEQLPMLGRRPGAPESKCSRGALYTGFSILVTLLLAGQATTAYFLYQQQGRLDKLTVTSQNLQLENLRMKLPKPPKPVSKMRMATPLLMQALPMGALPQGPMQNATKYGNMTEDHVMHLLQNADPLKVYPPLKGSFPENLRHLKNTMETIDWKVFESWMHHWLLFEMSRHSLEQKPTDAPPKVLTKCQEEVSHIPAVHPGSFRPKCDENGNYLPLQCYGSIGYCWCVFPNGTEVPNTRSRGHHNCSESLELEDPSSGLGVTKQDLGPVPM
Chain of CD20 (P11836 whole entry): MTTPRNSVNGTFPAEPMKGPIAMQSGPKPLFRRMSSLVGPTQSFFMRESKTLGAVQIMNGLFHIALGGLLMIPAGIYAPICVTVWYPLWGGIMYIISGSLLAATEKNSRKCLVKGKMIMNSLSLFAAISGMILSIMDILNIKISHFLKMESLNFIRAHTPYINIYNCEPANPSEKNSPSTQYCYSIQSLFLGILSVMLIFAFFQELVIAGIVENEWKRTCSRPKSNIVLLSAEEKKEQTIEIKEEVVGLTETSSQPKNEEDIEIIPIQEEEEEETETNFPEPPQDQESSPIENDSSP

For “20-Rap (hA20 IgG-AD2 with four copies of Rap-DDD2)”, in the assay with CD20, the in vitro cytotoxicity EC50, Daudi and Ramos NHL cell lines was 0.1 nM; the in vitro cytotoxicity EC50, Jeko-1 mantle cell lymphoma line was 0.02 nM.
On to “milatuzumab (humanized anti-CD74 LL1 antibody)”, for which, in assay [1], the reduction of live B cells in human PBMCs after 3 days with antibody, flow cytometry came to 22% and the reduction of live mDC2 in human PBMCs after 3 days with antibody, flow cytometry amounted to 53.8%.
